Tests used:
nerve regeneration = experiment: Similar experiments with modified amino acid agents (Example 2-8)
Method: Similar experiments were carried out using Pep5 in which alanine was added to the C terminus of the sequence (SEQ ID NO: 2), antibodies for the extracellular domain of p75, and p75 in which alanine was replaced with valine at amino acid 423 in positions 273-427 of SEQ ID NO: 4.

[1] = system: RhoA complexed with Rho GDI; experiment: In vitro nucleotide exchange assay; type: biochemical; settings: high Mg2+ concentrations; 90 nM Dbl
Method: Lipid-modified RhoA was purified from yeast membranes as described (Forget, M. A., Desrosiers, R. R., Gingras, D. & Beliveau, R., Biochem. J. 361, 243-54(2002)). [^3H]GDP- or GDP-RhoA complexed with Rho GDI was obtained by first incubating GDP-RhoA with or without [^3H]GDP, followed by incubation with Rho GDI for 30 min, as described previously (Takahashi, K. et al., J. Biol. Chem. 272, 23371-23375 (1997)). The sample, subjected to gel filtration, was equilibrated with 20 mM Tris-HCl (pH 7.5) containing 5 mM MgCl2, 1 mM dithiothreitol and 0.1% CHAPS. The GDP dissociation and GTP binding assays were carried out by the filter binding method as described previously (Hart, M. J., Eva, A., Evans, T., Aaronson, S. A. & Cerione, R. A., Nature 354, 311-314 (1991)). In the [^3H]GDP dissociation assay, 50 nM of the complex was incubated for 20 min with various concentrations of GST-fused proteins in a reaction mixture (50 μl) containing 30 mM Tris-HCl (pH 7.5), 5 mM or 0.5 μM MgCl2, 1 (for low Mg) or 10 (for high Mg) mM EDTA, 0.1 mM GTP, 1 mM dithiothreitol, 0.12% CHAPS and 0.2 mg/ml bovine serum albumin. In the [^35S] GTPγS binding assay, the complex was incubated as described above except that 1 μM [^35S] GTPγS was used instead of 0.1 mM GTP. At the indicated time, an aliquot of the reaction sample was removed, and passed through nitrocellulose filters (IPVH 000, Millipore). […]

| Molecule | nerve regeneration (nerve regeneration) | Dbl stimulated dissociation of GDP from GDP-RhoA complexed with Rho GDI [1] |
| --- | --- | --- |
| p75 in which alanine was replaced with valine at amino acid 423: p75 with alanine replaced with valine at amino acid 423 in positions 273-427 of SEQ ID NO: 4 (protein, listed as Homo sapiens) KRWNSCKQNKQGANSRPVNQTPPPEGEKLHSDSGISVDSQSLHDQQPHTQTASGQALKGDGGLYSSLPPAKREEVEKLLNGSAGDTWRHLAGELGYQPEHIDSFTHEACPVRALLASWATQDSATLDALLAALRRIQRADLVESLCSESTVTSPV | nerve regeneration was similarly observed |  |
| p75 ICD: intracellular domain (ICD) of p75, GST-fused (protein, left off: a dimerising Fc or GST, intracellular domain (ICD) of p75, GST-fused) KRWNSCKQNKQGANSRPVNQTPPPEGEKLHSDSGISVDSQSLHDQQTHTQTASGQALKGDGNLYSSLPLTKREEVEKLLNGDTWRHLAGELGYQPEHIDSFTHEACPVRALLASWGAQDSATLDALLAALRRIQRADIVESLCSESTATSPV |  | showed the inhibitory effect to the same extent as p75 HD |

Source: US20070054848A1, “Composition and method for nerve regeneration” (priority 2003, published 2007)
